Source: IntAct's records for PubMed 10898792

B1: Cell division control protein 13 (Saccharomyces cerevisiae), P32797 (parent)
chain: MDTLEEPECPPHKNRIFVSSSKDFEGYPSKAIVPVQFVALLTSIHLTETKCLLGFSNFERRGDQSQEDQYLIKLKFKDRGSERLARITISLLCQYFDIELPDLDSDSGASPTVILRDIHLERLCFSSCKALYVSKHGNYTLFLEDIKPLDLVSVISTISTKSTNSSKHSSSELISECDLNNSLVDIFNNLIEMNRDEKNRFKFVKLIHYDIELKKFVQDQQKVLSQKSKAAAINPFFVPNRLGIPYIESQNEFNSQLMTLNVDEPTTDISNMGEEMHDSADPIEDSDSSTTSSTGKYFSSKSYIQSQTPERKTSVPNNWHDDDSGSKRKRKLSFHSPNASSIRKAISYEQLSLASVGSVERLEGKIVGMNPPQFASINEFKYCTLKLYFTQLLPNVPDKVLVPGVNCIEIVIPTRERICELFGVLNCQSDKISDILLLEKPDRISVEVERILWDNDKTASPGMAVWSLKNISTDTQAQAQVQVPAQSSASIDPSRTRMSKMARKDPTIEFCQLGLDTFETKYITMFGMLVSCSFDKPAFISFVFSDFTKNDIVQNYLYDRYLIDYENKLELNEGFKAIMYKNQFETFDSKLRKIFNNGLRDLQNGRDENLSQYGIVCKMNIKVKMYNGKLNAIVRECEPVPHSQISSIASPSQCEHLRLFYQRAFKRIGESAISRYFEEYRRFFPIHRNGSHLAKLRFDEVKHEPKKSPTTPALAEHIPDLNADVSSFDVKFTDISSLLDSSARLPRPQQTHKSNTLYSCEGRIIAIEYHASDLCFHITNELPLLQTRGLAPERVLQLHIITSKNFAYFFNRSSAYLQRQPLEEKYTQLAQFLGHSFKFNITSSLTLFPDTTVALQIWCPIECTFRELQQQLAHPKVAAAPDSGSLDCAINATVNPLRLLAAQNGVTVKKEEDNDDDAGAVPTS
partner: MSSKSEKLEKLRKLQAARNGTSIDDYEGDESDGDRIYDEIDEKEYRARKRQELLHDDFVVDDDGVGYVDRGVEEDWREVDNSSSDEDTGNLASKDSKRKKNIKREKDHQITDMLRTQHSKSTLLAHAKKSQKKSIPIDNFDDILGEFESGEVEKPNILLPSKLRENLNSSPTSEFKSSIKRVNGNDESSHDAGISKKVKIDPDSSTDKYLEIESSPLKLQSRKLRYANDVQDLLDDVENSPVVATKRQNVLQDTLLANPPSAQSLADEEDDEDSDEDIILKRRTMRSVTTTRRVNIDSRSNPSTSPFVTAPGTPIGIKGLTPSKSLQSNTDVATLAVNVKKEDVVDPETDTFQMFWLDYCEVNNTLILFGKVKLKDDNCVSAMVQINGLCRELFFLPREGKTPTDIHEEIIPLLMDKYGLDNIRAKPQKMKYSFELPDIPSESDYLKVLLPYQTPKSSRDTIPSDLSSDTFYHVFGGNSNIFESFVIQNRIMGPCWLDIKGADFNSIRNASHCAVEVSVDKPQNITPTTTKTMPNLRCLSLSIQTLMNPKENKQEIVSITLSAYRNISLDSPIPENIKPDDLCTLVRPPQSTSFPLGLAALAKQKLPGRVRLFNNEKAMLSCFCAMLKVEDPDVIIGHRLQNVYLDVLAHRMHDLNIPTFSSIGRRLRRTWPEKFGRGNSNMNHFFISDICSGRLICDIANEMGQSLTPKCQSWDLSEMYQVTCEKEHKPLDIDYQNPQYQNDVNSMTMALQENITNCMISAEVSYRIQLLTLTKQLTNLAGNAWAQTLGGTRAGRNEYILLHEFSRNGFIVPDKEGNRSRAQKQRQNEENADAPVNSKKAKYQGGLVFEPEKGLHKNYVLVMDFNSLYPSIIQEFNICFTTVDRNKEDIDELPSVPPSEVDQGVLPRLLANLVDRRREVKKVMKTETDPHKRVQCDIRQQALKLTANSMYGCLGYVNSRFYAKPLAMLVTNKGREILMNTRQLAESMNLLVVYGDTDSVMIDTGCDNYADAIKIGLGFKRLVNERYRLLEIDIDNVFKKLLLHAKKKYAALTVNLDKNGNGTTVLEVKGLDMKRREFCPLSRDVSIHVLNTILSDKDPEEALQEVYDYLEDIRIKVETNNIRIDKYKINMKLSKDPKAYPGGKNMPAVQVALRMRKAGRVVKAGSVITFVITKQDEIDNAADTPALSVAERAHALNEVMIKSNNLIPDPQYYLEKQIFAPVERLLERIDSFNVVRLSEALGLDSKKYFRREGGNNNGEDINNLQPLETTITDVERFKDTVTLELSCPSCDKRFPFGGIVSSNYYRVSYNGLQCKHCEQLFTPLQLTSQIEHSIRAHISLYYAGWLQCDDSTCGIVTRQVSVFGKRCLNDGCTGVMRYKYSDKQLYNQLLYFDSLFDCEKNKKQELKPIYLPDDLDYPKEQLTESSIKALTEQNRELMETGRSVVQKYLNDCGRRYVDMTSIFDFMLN
B2: DNA polymerase alpha catalytic subunit A (Saccharomyces cerevisiae), P13382 (parent)
chain: B1 partner
partner: B1 chain
B3: Cell division control protein 13 (Saccharomyces cerevisiae), P32797 (parent)
chain: B1 chain
partner: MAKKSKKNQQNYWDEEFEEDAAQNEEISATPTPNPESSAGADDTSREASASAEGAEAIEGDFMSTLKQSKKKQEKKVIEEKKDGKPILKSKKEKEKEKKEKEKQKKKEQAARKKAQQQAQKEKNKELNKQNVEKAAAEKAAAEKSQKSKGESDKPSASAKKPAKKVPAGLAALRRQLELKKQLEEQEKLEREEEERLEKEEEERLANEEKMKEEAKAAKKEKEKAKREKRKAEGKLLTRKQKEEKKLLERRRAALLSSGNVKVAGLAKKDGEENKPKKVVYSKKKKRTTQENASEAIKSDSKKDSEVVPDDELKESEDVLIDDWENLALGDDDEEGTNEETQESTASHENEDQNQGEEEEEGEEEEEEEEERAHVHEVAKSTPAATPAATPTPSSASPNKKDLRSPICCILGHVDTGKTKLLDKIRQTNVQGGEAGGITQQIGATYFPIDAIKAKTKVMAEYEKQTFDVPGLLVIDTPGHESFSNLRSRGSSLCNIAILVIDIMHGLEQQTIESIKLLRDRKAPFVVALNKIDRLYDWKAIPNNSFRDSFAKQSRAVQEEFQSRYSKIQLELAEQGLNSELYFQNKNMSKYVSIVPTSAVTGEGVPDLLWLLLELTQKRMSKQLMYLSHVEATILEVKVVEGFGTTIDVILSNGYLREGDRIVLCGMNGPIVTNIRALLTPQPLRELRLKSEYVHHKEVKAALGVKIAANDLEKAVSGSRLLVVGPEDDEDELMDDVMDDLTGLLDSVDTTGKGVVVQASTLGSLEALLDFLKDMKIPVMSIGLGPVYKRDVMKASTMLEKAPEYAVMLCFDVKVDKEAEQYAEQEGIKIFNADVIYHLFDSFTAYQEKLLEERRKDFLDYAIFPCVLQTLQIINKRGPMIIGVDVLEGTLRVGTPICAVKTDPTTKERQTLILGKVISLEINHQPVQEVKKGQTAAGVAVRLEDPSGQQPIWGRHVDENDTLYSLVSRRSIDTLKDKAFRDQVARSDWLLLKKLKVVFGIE

Variants of: B1
Details: with dpola_yeast POL1, P13382

effect of a mutation on the interaction | Variant
decreasing interaction | S228P
decreasing interaction | D97F
decreasing interaction | K50Q
decreasing interaction | Y382H
decreasing interaction | I72T
decreasing interaction | K129R
decreasing interaction | I523V
decreasing interaction | L392P
decreasing interaction | L149S
decreasing interaction | C124R
decreasing interaction | G243R

Variants of: B2
Details: with cdc13_yeast CDC13, P32797

effect of a mutation on the interaction | Variant
decreasing interaction | D236N
decreasing interaction | E238K
decreasing interaction | P241T

Variants of: B3
Details: with if2p_yeast FUN12, P39730

effect of a mutation on the interaction | Variant
decreasing interaction | I72T
decreasing interaction | K129R
decreasing interaction | G243R
